Measured values taken from PMC4504706, “Deinococcus radiodurans PriA is a Pseudohelicase”.

Columns and labels:
PriA (D. radiodurans) = target: T1, PriA (D. radiodurans) (Deinococcus radiodurans R1, UniProt P0DXX8 1-925); assay: fluorescence anisotropy; 1 mM Mg2+, no ATP listed; apparent Kd (half-bound); 20 mM Tris-HCl pH 8, 15% glycerol, 50 mM NaCl, 1 mM MgCl2, 1 mM 2-mercaptoethanol, 0.1 g/L BSA, 1 nM DNA, 25 C; details: protein: recombinant, tags: N-terminal His6 removed by thrombin, leaving Gly-Ser-His before Met1
T1 sequence: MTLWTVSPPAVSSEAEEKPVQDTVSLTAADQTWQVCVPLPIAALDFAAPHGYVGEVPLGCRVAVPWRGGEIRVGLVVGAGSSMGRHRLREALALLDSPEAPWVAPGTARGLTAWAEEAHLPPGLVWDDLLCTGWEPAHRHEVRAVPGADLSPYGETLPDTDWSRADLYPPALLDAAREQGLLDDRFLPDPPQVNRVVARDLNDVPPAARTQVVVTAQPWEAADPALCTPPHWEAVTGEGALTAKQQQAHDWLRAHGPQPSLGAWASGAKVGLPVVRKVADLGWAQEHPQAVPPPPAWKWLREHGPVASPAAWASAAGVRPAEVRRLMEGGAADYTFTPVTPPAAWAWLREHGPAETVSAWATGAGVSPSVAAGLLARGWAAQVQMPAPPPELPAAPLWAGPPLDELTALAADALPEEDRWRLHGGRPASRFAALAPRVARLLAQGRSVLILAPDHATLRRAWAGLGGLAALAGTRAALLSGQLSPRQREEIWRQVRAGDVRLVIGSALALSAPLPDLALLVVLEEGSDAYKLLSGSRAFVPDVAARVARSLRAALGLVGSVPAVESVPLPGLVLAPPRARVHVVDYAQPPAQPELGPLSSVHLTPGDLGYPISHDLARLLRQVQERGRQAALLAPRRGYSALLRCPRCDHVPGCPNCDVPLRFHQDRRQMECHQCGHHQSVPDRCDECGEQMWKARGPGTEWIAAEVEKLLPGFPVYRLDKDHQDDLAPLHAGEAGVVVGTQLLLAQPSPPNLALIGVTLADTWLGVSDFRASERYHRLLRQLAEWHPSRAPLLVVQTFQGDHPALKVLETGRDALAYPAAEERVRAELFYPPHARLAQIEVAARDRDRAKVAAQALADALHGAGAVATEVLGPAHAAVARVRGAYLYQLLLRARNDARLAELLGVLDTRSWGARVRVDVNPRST

PriA (E. coli) = PriA (E. coli) (Escherichia coli K12, UniProt P17888 1-732); assay: as above; details: protein: recombinant
[1] = label: 3' fluorescein, single strand
[2] = label: 3' fluorescein on S8 (nascent lagging strand), three-way fork without gap: S5[1-25]:S6[26-50] parental, S5[26-50]:S7 leading, S6[1-25]:S8 lagging, blunt arms

Chain of PriA (E. coli) (P17888 whole entry): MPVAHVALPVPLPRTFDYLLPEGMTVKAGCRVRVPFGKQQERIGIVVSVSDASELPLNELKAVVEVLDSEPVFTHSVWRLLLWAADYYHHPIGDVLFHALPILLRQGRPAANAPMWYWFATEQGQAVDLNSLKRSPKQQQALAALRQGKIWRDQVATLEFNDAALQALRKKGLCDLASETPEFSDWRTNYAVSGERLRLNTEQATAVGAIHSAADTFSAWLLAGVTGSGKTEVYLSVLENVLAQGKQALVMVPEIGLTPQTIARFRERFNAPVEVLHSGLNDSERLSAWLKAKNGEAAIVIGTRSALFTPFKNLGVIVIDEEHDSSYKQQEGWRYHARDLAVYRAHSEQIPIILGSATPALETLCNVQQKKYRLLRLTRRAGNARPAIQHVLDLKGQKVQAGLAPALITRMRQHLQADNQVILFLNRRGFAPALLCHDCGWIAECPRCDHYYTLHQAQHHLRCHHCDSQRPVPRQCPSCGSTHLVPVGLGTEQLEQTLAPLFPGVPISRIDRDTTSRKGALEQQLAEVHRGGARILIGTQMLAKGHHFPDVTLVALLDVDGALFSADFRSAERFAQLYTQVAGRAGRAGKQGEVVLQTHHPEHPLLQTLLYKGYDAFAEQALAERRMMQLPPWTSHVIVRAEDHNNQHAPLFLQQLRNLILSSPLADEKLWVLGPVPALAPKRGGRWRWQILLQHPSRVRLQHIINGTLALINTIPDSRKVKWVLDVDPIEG

Binder | Kd (PriA (D. radiodurans); [1]) | Kd (PriA (E. coli); [1]) | Kd (PriA (D. radiodurans); [2]) | Kd (PriA (E. coli); [2])
AAGCACAATTACCCACGC (ssDNA) [18-base mixed-sequence ssDNA] | 215 ± 17 nM | 129 ± 11.9 nM | – | –
fully-duplex fork DNA, 25 bp arms (structured_DNA) DNA 1: GTCGGATCCTCTAGACAGCTCCATGATCACTGGCACTGGTAGAATTCGGC DNA 2: AACGTCATAGACGATTACATTGCTACATGGAGCTGTCTAGAGGATCCGAC DNA 3: GCCGAATTCTACCAGTGCCAGTGAT DNA 4: TAGCAATGTAATCGTCTATGACGTT | – | – | 108 ± 1.7 nM | 52.1 ± 1 nM
